Laboratory results published in paper PMC3865065 (Nature, 2013).

Target: T1, extracellular Venus Flytrap (VFT) module of human GBR2 (human, UniProt O75899 42-466, carbohydrate at Asn404)
T1 sequence (looked up): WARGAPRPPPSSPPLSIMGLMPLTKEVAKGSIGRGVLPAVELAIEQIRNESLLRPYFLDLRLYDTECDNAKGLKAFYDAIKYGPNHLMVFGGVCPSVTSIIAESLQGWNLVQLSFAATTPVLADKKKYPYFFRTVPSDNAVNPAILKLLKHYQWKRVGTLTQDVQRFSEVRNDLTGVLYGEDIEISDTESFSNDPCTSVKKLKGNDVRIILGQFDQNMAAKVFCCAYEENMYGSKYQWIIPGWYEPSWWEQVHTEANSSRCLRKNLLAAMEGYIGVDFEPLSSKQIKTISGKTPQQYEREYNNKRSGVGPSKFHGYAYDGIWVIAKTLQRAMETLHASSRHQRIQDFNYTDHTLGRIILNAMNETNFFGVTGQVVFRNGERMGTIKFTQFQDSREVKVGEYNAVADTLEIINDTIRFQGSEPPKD
Test: crystal structure

binding result: binds
B1: extracellular Venus Flytrap (VFT) module of human GBR1b (domain or fragment, UniProt Q9UBS5-2 48-459, looked up)
chain: SERRAVYIGALFPMSGGWPGGQACQPAVEMALEDVNSRRDILPDYELKLIHHDSKCDPGQATKYLYELLYNDPIKIILMPGCSSVSTLVAEAARMWNLIVLSYGSSSPALSNRQRFPTFFRTHPSATLHNPTRVKLFEKWGWKKIATIQQTTEVFTSTLDDLEERVKEAGIEITFRQSFFSDPAVPVKNLKRQDARIIVGLFYETEARKVFCEVYKERLFGKKYVWFLIGWYADNWFKIYDPSINCTVDEMTEAVEGHITTEIVMLNPANTRSISNMTSQEFVEKLTKRLKRHPEETGGFQEAPLAYDAIWALALALNKTSGGGGRSGVRLEDFNYNNQTITDQIYRAMNSSSFEGVSGHVVFDASGSRMAWTLIEQLQGGSYKKIGYYDSTKDDLSWSKTDKWIGGSPPAD
modifications: carbohydrate at Asn323 and Asn365 (seen in apo and antagonist-bound structures)
